Reference: patent US20210363257A1 (Pieris, published 2021)

How the values were obtained:
[1] = target: T1, huPD-L1-His (human PD-L1 with a C-terminal polyhistidine tag) (human, UniProt Q9NZQ7 19-239); experiment: ELISA, huPD-L1-His coated, detection anti-human IgG Fc-HRP
T1 construct: Bought; also called biotinylated huPD-L1-His
Protocol: (§1) Recombinant huPD-L1-His or cyPD-L1-His (human or cynomolgus PD-L1 with a C-terminal polyhistidine tag, R&D Systems or Sino Biologics) at the concentration of 1 μg/mL in PBS was coated overnight on microtiter plates at 4° C. After washing with PBS-0.05% T (PBS supplemented with 0.05% (v/v) Tween 20), the plates were blocked with 2% BSA (w/v) in PBS-0.1% T (PBS supplemented with 0.1% (v/v) Tween 20) for 1 h at room temperature. […] Bound molecules under study were detected by incubation with 1:5000 diluted anti-human IgG Fc-HRP (Jackson Laboratory) in PBS-0.1% T-2% BSA. After an additional wash step, fluorogenic HRP substrate (QuantaBlu, Thermo) was added to each well and the fluorescence intensity was detected using a fluorescence microplate reader.

[2] = target: T2, human CD137 expressed on cells (human, UniProt Q07011 24-255); experiment: flow cytometry, Flp-In-CHO::huCD137 cells
T2 construct: whole, on cells; also called Flp-In-CHO::huCD137; NFκB-luc2/CD137 Jurkat cells
Protocol: (§2) The geometric means of the fluorescence intensity were used to calculate EC₅₀ values using nonlinear regression (shared bottom, SLOPE=1).
(§3) 5×10⁴ cells per well were incubated for 1 h in ice-cold PBS containing 5% fetal calf serum (PBS-FCS). A dilution series of the fusion proteins and control antibodies were added to the cells and incubated for 1 h on ice. Cells were washed twice with PBS and then incubated with a goat anti-hIgG Alexa647-labeled antibody for 30 min on ice. Cells were subsequently washed and analyzed using iQue Flow cytometer (Intellicyte Screener). Mean geometric fluorescent signals were plotted and fitted with Graphpad software using nonlinear regression (shared bottom, SLOPE=1).

[3] = target: T3, cynomolgus PD-L1 expressed on cells (cynomolgus); experiment: flow cytometry, Flp-In-CHO::cynoPDL-1 cells
T3 construct: whole, on cells; also called Flp-In-CHO::cynoPDL-1
Protocol: as §2, §3

[4] = target: T4, cyPD-L1-His (cynomolgus PD-L1 with a C-terminal polyhistidine tag) (cynomolgus); experiment: ELISA, cyPD-L1-His coated, detection anti-human IgG Fc-HRP
T4 construct: Bought
Protocol: as §1

[5] = target: T5, huCD137-His (human CD137 with a C-terminal polyhistidine tag) (human, UniProt Q07011 24-186); experiment: SPR (Biacore), binder captured by anti-human IgG Fc, huCD137-His in solution, 25 C, 1:1 model
T5 construct: Bought; also called huCD137-His-Bio
Protocol: (§4) The binding kinetics and affinity of exemplary fusion proteins to huPD-L1-His or huCD137-His (human PD-L1 or human CD137 with a C-terminal polyhistidine tag, R&D Systems) were determined by surface plasmon resonance (SPR) using a Biacore 8K or a Biacore T200 (GE Healthcare).
(§5) The anti-human IgG Fc antibody (GE Healthcare) was immobilized on a CM5 sensor chip using standard amine chemistry: the carboxyl groups on the chip were activated using 1-ethyl-3-(3-dimethylaminopropyl)-carbodiimide (EDC) and N-hydroxysuccinimide (NHS). Subsequently, anti-human IgG Fc antibody solution (GE Healthcare) at a concentration of 25 μg/mL in 10 mM sodium acetate (pH 5.0) was applied at a flow rate of 5 μL/min until an immobilization level of 6000-10000 resonance units (RU) was achieved. Residual non-reacted NHS-esters were blocked by passing a solution of 1M ethanolamine across the surface. The reference channel was treated in an analogous manner. […] After each capture step, the needle was washed.
(§6) Double referencing was used and the 1:1 binding model was used to fit the raw data.

[6] = target: T1, huPD-L1-His (human PD-L1 with a …); experiment: SPR (Biacore), binder captured by anti-human IgG Fc, huPD-L1-His in solution, 25 C, 1:1 model
Protocol: as §4, §5, §6

[7] = target: T1, huPD-L1-His (human PD-L1 with a …); experiment: dual-binding ELISA, huPD-L1-His coated, binder titrated, detection with biotinylated huCD137-His
Protocol: Recombinant huPD-L1-His (R&D Systems) in PBS (1 μg/mL) was coated overnight on microtiter plates at 4° C. The plates were washed five times after each incubation step with 100 μL PBS-0.05% T. The plates were blocked with 2% BSA (w/v) in PBS-0.1% T for 1 h at room temperature and subsequently washed again. Different concentrations of tested fusion proteins were added to the wells and incubated for 1 h at room temperature, followed by a wash step. […] After washing, a 1:5000 dilution of ExtrAvidin-HRP (Sigma-Aldrich) in PBS-0.1% T-2% BSA was added to the wells and incubated for 1 h. After an additional wash step, fluorogenic HRP substrate (QuantaBlu, Thermo) was added to each well, and the fluorescence intensity was detected using a fluorescence microplate reader.

[8] = target: T6, huPD-L1-Fc (recombinant human PD-L1 Fc fusion) (human, UniProt Q9NZQ7 19-239); experiment: competitive ELISA, huPD-1-His coated, 15 nM huPD-L1-Fc tracer, binder titrated
T6 construct: Bought; also called tracer huPD-L1-Fc
Protocol: Recombinant huPD-1-His (Acrobiosystems) in PBS (1 μg/mL) was coated overnight on microtiter plates at 4° C. The plates were washed five times after each incubation step with 100 μL PBS-0.05% T (PBS supplemented with 0.05% (v/v) Tween 20). The plates were blocked with 2% BSA (w/v) in PBS-0.1% T (PBS supplemented with 0.1% (v/v) Tween 20) for 1 h at room temperature and subsequently washed again. […] The mixtures of fusion proteins and the tracer were added to the plates and incubated for 20 min at room temperature following by five washing steps with 100 μL PBS-0.05% T. Subsequently, a 1:5000 dilution of goat-anti human IgG-Fc HRP (Jackson) was added to the wells and incubated for 1 h. After an additional wash step, fluorogenic HRP substrate (QuantaBlu, Thermo) was added to each well, and the fluorescence intensity was detected using a fluorescence microplate reader.

[9] = target: T5, huCD137-His (human CD137 with a …); experiment: dual-binding ELISA, huCD137-His coated, binder titrated, detection with biotinylated huPD-L1-His
[10] = target: T7, human PD-L1 expressed on cells (human, UniProt Q9NZQ7 19-290); experiment: flow cytometry, RKO tumor cells (PD-L1-positive)
T7 construct: whole, on cells; also called Flp-In-CHO::huPDL-1; RKO cells
Protocol: as §3
For flow cytometric analysis, RKO cells were incubated with fusion proteins and detected using a fluorescently labeled anti-human IgG antibody as described in Example 6.

[11] = target: T2, human CD137 expressed on cells; experiment: cell-based or functional assay
[12] = target: cyCD137-Fc (cynomolgus CD137 C-terminally fused to Fc) (cynomolgus); experiment: ELISA, cyCD137-Fc coated, detection anti-NGAL-HRP
Protocol: as §1
(§7) The same ELISA setup was also employed to determine the binding potency of fusion proteins to CD137, where huCD137-His (human CD137 with C-terminal polyhistidine tag, R&D Systems) or cyCD137-Fc (cynomolgus CD137 C-terminally fused to Fc) was instead coated on a microtiter plate. The testing agents were similarly titrated and bound agents were detected via anti-NGAL-HRP.

[13] = target: T5, huCD137-His (human CD137 with a …); experiment: ELISA, huCD137-His coated, detection anti-NGAL-HRP
Protocol: as §1, §7

[14] = target: T7, human PD-L1 expressed on cells; experiment: flow cytometry, Flp-In-CHO::huPDL-1 cells
Protocol: as §2, §3

[15] = target: T8, cynomolgus CD137 expressed on cells (cynomolgus, UniProt A9YYE7 24-254); experiment: flow cytometry, Flp-In-CHO::cynoCD137 cells
T8 construct: also called Flp-In-CHO::cynoCD137
Protocol: as §2, §3

T6 sequence (Q9NZQ7 19-239 limits assumed): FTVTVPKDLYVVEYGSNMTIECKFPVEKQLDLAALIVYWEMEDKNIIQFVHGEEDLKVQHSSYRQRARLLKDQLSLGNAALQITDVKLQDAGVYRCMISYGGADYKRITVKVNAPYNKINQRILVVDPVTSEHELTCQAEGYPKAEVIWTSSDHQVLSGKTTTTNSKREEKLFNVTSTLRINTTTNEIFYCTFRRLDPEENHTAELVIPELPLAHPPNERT
T1 sequence (Q9NZQ7 19-239 limits assumed): as above
T7 sequence (Q9NZQ7 19-290): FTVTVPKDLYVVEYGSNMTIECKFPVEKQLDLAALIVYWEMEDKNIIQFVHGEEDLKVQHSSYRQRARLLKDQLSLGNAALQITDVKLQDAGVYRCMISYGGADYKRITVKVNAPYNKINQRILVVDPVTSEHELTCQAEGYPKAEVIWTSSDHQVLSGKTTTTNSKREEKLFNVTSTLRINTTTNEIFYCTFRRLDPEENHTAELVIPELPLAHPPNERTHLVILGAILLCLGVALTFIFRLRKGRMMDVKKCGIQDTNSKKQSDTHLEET
T2 sequence (Q07011 24-255): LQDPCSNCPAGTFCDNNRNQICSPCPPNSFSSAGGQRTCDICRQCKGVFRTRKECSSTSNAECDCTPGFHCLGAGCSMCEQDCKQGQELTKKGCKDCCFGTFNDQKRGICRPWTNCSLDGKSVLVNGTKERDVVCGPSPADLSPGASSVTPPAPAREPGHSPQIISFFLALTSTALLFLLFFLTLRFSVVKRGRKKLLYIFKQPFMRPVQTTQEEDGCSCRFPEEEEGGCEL
T5 sequence (Q07011 24-186 limits assumed): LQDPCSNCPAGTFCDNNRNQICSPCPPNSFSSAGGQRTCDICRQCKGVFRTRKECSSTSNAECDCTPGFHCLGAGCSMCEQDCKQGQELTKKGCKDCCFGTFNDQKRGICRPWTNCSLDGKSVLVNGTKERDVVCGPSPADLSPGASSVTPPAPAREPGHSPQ
T8 sequence (A9YYE7 entry or part of it limits assumed): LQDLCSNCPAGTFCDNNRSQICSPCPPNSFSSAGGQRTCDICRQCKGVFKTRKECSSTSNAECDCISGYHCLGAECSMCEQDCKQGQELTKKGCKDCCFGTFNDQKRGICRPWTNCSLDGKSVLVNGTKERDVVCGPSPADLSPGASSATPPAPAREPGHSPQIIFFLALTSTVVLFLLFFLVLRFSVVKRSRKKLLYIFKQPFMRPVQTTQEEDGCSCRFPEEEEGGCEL

Row | Binder | EC50 [1] [nM] | EC50 [2] [nM] | EC50 [3] [nM] | EC50 [4] [nM] | Kd [5] [nM] | koff [5] [s⁻¹] | kon [5] [M⁻¹ s⁻¹] | Kd [6] [nM] | koff [6] [s⁻¹] | kon [6] [M⁻¹ s⁻¹] | EC50 [7] [nM] | IC50 [8] [nM] | EC50 [9] [nM] | EC50 [10] [nM] | EC50 [nM] With RKO cells (CD137 Bioassay, NFκB-luc2/CD137 Jurkat luminescence) [11] [nM] | EC50 [12] [nM] | EC50 [13] [nM] | EC50 [14] [nM] | EC50 [15] [nM]
1 | fusion protein SEQ ID NOs: 92 and 87 (bispecific antibody, human IgG4 S228P, kappa, F234A L235A, Antibody-lipocalin mutein fusion, IgG4 S228P backbone; Bivalent to CD137) heavy: not shown light: EIVLTQSPDTLSVTPKEKVTLTCRASQSIGTNIHWFQQKPGQSPKLLIKYASESISGVPSRFSGSGSGTDFTLTINSVEAEDAATYYCQQSNSWPYTFGQGTKLEIKRTVAAPSVFIFPPSDEQLKSGTASVVCLLNNFYPREAKVQWKVDNALQSGNSQESVTEQDSKDSTYSLSSTLTLSKADYEKHKVYACEVTHQGLSSPVTKSFNRGEC | 0.16 | 11.9 | 2.03 | 0.15 | 5.97 | 0.000208 | 34800 | 1.02 | 0.000803 | 787000 | 1.2 | 3.4 | 7.2 | 1 | 0.181 | 9.8 | 0.41 | 2.95 | 
2 | fusion protein SEQ ID NOs: 86 and 93 (bispecific antibody, human IgG4 S228P, kappa, F234A L235A, Antibody-lipocalin mutein fusion, IgG4 S228P backbone; Bivalent to CD137) heavy: not shown light: QDSTSDLIPAPPLSKVPLQQNFQDNQFHGKWYVVGQAGNIRLREDKDPIKMMATIYELKEDKSYDVTMVKFDDKKCMYDIWTFVPGSQPGEFTLGKIKSFPGHTSSLVRVVSTNYNQHAMVFFKFVFQNREEFYITLYGRTKELTSELKENFIRFSKSLGLPENHIVFPVPIDQCIDGGGGGSGGGGSGGGGSEIVLTQSPDTLSVTPKEKVTLTCRASQSIGTNIHWFQQKPGQSPKLLIKYASESISGVPSRFSGSGSGTDFTLTINSVEAEDAATYYCQQSNSWPYTFGQGTKLEIKRTVAAPSVFIFPPSDEQLKSGTASVVCLLNNFYPREAKVQWKVDNALQSGNSQESVTEQDSKDSTYSLSSTLTLSKADYEKHKVYACEVTHQGLSSPVTKSFNRGEC | 0.19 | 12.7 | 2.03 | 0.17 | 3.55 | 0.00013 | 36800 | 1.38 | 0.000754 | 546000 | 0.74 | 3.2 | 6.7 | 1.38 | 0.264 | 8.1 | 0.35 | 4.63 | 
3 | reference CD137 antibody SEQ ID NOs: 28 and 29 (antibody, human IgG4 S228P, kappa, V domains shown, also called anti-CD137 benchmark antibody) VH: QVQLQQWGAGLLKPSETLSLTCAVYGGSFSGYYWSWIRQSPEKGLEWIGEINHGGYVTYNPSLESRVTISVDTSKNQFSLKLSSVTAADTAVYYCARDYGPGNYDWYFDLWGRGTLVTVSS VL: EIVLTQSPATLSLSPGERATLSCRASQSVSSYLAWYQQKPGQAPRLLIYDASNRATGIPARFSGSGSGTDFTLTISSLEPEDFAVYYCQQRSNWPPALTFGGGTKVEIKR |  | 1.31 |  |  | 6.24 |  |  |  |  |  |  |  |  |  | 0.814 |  |  |  | 
4 | fusion protein SEQ ID NOs: 94 and 87 (bispecific antibody, human IgG4 S228P, kappa, F234A L235A, Antibody-lipocalin mutein fusion, IgG4 S228P backbone) heavy: not shown light: EIVLTQSPDTLSVTPKEKVTLTCRASQSIGTNIHWFQQKPGQSPKLLIKYASESISGVPSRFSGSGSGTDFTLTINSVEAEDAATYYCQQSNSWPYTFGQGTKLEIKRTVAAPSVFIFPPSDEQLKSGTASVVCLLNNFYPREAKVQWKVDNALQSGNSQESVTEQDSKDSTYSLSSTLTLSKADYEKHKVYACEVTHQGLSSPVTKSFNRGEC | 0.18 | 4.15 | 5.89 | 0.15 | 5.5 | 0.000224 | 40700 | 0.608 | 0.000916 | 1.51e+06 | 0.48 | 2.4 | 2.6 | 0.69 |  | 0.19 | 0.16 | 6.99 | 6.92
5 | PD-L1 antibody SEQ ID NOs: 86 and 87 (building block of the fusion proteins) (antibody, human IgG4 S228P, kappa, F234A L235A, V domains shown) VH: QVQLQESGPGLVKPSETLSITCTVSGFSLSNYDISWIRQPPGKGLEWLGVIWTGGATNYNPALKSRLTISRDNSKNQVSLKMSSVTAADTAVYYCVRDSNYRYDEPFTYWGQGTLVTVSS VL: EIVLTQSPDTLSVTPKEKVTLTCRASQSIGTNIHWFQQKPGQSPKLLIKYASESISGVPSRFSGSGSGTDFTLTINSVEAEDAATYYCQQSNSWPYTFGQGTKLEIKR | 0.12 |  | 3.55 | 0.1 |  |  |  | 0.593 | 0.000649 | 1.09e+06 |  | 3.5 |  | 0.32 |  |  |  | 2.96 | 
